Fewer inactive variants are shown than the library holds.
B1: TPR 5TU (parent)
chain: GGAUCUUCUCGAUCUAACAAAAAAGACAAAUCUGCCACAAAGCUUGAGAGCAUCUUCGGAUGCAGAGGCGGCAGCCUUCGGUGGCGCGAUAGCGCCAACGUUCUCAACUAUGACACGCAAAACGCGUGCUCCGUUGAAUGGAGUUUAUCAUG

Variants of: B1
Assay: polymerase ribozyme fitness, log enrichment relative to wild type (log ratio); higher = more active; in vitro selection for triplet polymerase activity
Method in brief: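 Input and output libraries were sequenced on Illumina after a single in vitro selection round, run in triplicate on PCR-built, transcribed mutant libraries of each subunit of a heterodimeric triplet polymerase ribozyme. Selection annealed libraries to a biotinylated primer, the partner subunit and triplets, incubated them frozen at −7 °C, then gel-excised extended constructs for streptavidin-bead capture and RT-PCR. Genotypes with ≥10 input reads and ≥1 read per output were kept. Fitness is the logarithm, taken in base 2, of genotype enrichment divided by wild-type enrichment, using inverse-variance-weighted replicate averages.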

Variant	polymerase ribozyme fitness (log ratio)
C18U A60U G92U C93U C95U C125U	-4.09
A16G A26U G65U C103G A107G C114G	≤ -4.2
A22U C38U A73U C96U	0.145
A19U U53G U55A C85G	≤ -4.2
A41C A150U	0.683
C10U C32U C35U A49C C51A C87A G141A	≤ -4.2
C43U C96A C116G A137U	≤ -4.2
C54A C87U C93G U134G U135A	≤ -4.2
A17U U61G C76G	≤ -4.2
C72A A147C	≤ -4.2
A21C A47C C96A G133C	-1.54
A22G C35G U44C U77G C87A C93G U111G	≤ -4.2
A52U G86C G88A C105A G141U	≤ -4.2
U61G C69U C93G G143A	≤ -4.2
A17U C108U	-3.48
A73G G83C C95G A120C A122G	≤ -4.2
A28G C43G G83U C93A U135G	≤ -4.2
G81C C93A	-2.57
G81C C93G	-3.69
C69U G126C	-0.197
C57U G83C C87A G94U U146C	≤ -4.2

Variant	polymerase ribozyme fitness (log ratio)
A39C C108U	-3.8
C18G U61C C85G C95U	≤ -4.2
A21G C57U C93U G136C	-4.04
C36A C57U C63A G86A A147G	≤ -4.2
U56A A137C	-3.11
A73G G83C U145G	-2.01
A24C C38A U77A G84C A89U	≤ -4.2
C32A G71U A91G A119G A120U U127C G136C	≤ -4.2
A30C C54U G70U C93A A120U U130A A138G	≤ -4.2
C27U A52G U53A C118G	-2.63
U13A G58U C96A A120U U145C	-1.29
A47G C85A C93A A98C A121U	-4.11
C35A A66C U104G	≤ -4.2
A52G C96G	-2.13
A17G G86A C93U A97U	0.0217
U13G G84U U135A G136A	-2.14
G84A C87A	≤ -4.2
C18A C93U A113U A119C G140U	-4.1
G58U G68A U148G	≤ -4.2
A30G G83U G117A	≤ -4.2
A41U G58A A60U C93G	≤ -4.2

Variant	polymerase ribozyme fitness (log ratio)
U13G A66C G80U G83C U101C U139C	≤ -4.2
A52G U55A U90G C96U C103A C131G	≤ -4.2
A113U	-1.59
U53A C118U	-1.08
C54A G83A C99U	-3.7
U44A C93G A113G U134A	≤ -4.2
U55A C63G	0.923
G11A G59C	-0.989
C96A A97U C118U	-0.741
C36A A37C C43A U61A C85G	≤ -4.2
A24G C123U G140C	≤ -4.2
G71A A91G C93U	≤ -4.2
G50A U145A	-0.516
C10U A60G	-2.5
A41U G46A U61A G84U C105U C118U	-3.26
A3G U6A A40G C87A	≤ -4.2
G34U G83U A91C C99U A107U	≤ -4.2
C10G A26U A107U A115U C129A U148G	≤ -4.2
U13C A52G G84A	-1.1
G68A C85U C105A G124A G133U	≤ -4.2
C87A G88U	≤ -4.2

Variant	polymerase ribozyme fitness (log ratio)
G65A C131U	-0.0454
A73G G92C C96A	-2.51
C85U C108G G143A A150G	-3.95
A12C U145C	0.192
C76A C87U G140C	≤ -4.2
U55A C116U	-0.684
C32G G94A A97U	≤ -4.2
A40G U53A C54U U82G C87A A89G A137U A138U U145A	≤ -4.2
C76A A91G C114U	-3.98
C99G G152A	-2.39
A21G U55G C79G G94A C99A	≤ -4.2
U61A C99U	-2.69
A52G G59A C75U	-0.737
A23G G59U C75G U90C C129A	≤ -4.2
A49U U56G C57U C96U U102G A147G	-3.99
G42U A73C C95U A98C U144A	≤ -4.2
C5G A20U U33G A39C U55G C57A A91G A138C	≤ -4.2
U33A G71U C79G C87G C95G	≤ -4.2
U31C G94C	0.811
A37G C57G C69A C85U A120U	-3.21
